Assay [1] deals with KIX KIX (UniProt P45481). The assay is described as follows: NMR. The note with it: cited from earlier work.
Assay [2] deals with KIX KIX (UniProt P45481). Particulars: cited from earlier work.
For assay [3], the target named is T1, KIX domain of CREB-binding protein (UniProt P45481 586-665). Kind of assay: fluorescence polarisation; fluorescence anisotropy equilibrium binding; 1 uM FITC-peptide with varying KIX, 30 min, 10 C; 100 mM sodium phosphate pH 7.5, 0.05% Tween. Particulars: both partners purified. A general note: In fluorescence polarisation assays a small probe gives low polarisation when free and higher when bound to something large.

Assay [4] concerns the target T1, KIX domain of CREB-binding protein. The assay is described as follows: stopped-flow fluorescence association kinetics; pseudo-first-order, KIX in 10-fold or larger excess over FITC-peptide; double exponential fits; 10 C; 100 mM sodium phosphate pH 7.5, 0.05% Tween. The note with it: both partners purified.
Assay [5] shares this target. The assay is described as follows: stopped-flow fluorescence out-competition dissociation kinetics; KIX:FITC-(p)KID complex rapidly mixed with unlabeled cMybTAD; single exponentials; asymptote gives k_diss; 10 C; 100 mM sodium phosphate pH 7.5, 0.05% Tween. Particulars: both partners purified.
Assay [6] shares this target. The assay is described as above. Particulars: both partners purified. This is another data set of the same source.

Where two headings read alike, the source gives them in different places. Non-standard residues stand in square brackets, D forms with d. No end group written: not given here. *: point of attachment. FITC = O=C1OC2(c3ccc(O)cc3Oc3cc(O)ccc32)c2ccc(NC(=S)*)cc21; pS = N[C@@H](COP(=O)(O)O)C(=O)O

T1 sequence (P45481 586-665): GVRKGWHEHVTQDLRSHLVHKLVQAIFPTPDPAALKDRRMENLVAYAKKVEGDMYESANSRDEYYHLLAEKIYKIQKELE
Chain of KIX KIX (P45481 586-665): as above

Take pKID KID (from UniProt P15337): the Kd with KIX KIX [1] is 1300 nM.
On to pKID29 KID (from UniProt P16220), for which, in the assay with KIX KIX [2], the Kd was 8.3 µM.

B1: FITC-KID (kinase inducible domain of CREB, residues 116-146, unphosphorylated, N-terminus labeled with FITC) (peptide, UniProt P15337-1 116-146, looked up)
peptide: {FITC}-DSVTDSQKRREILSRRPSYRKILNDLSSDAP
notes: also called unphosphorylated KID; source: synthetic peptide, bought: Biomatik
In turn, B1 showed a Kd in assay [3] of 29 ± 1 µM. Besides, in assay [4], the “k_ass,fast (fast phase of association)” value is 7.6 ± 0.8 µM⁻¹ s⁻¹ and the “k_ass,slow (slow phase of association)” value was 21.2 ± 2.4 s⁻¹. Besides, in assay [5], the “half-life of the complex” value is around 10 ms. Also, the koff in assay [6] is 66.3 ± 4.9 s⁻¹.

B2: FITC-KID-S133E (KID of CREB, residues 116-146, S133E, N-terminus labeled with FITC) (peptide, UniProt P15337-1 116-146, looked up)
peptide: {FITC}-DSVTDSQKRREILSRRPEYRKILNDLSSDAP
notes: kinase inducible domain (KID) of CREB, UniProt P15337, residues 116-146, with S133E; also called the phosphomimetic; source: synthetic peptide, bought: Biomatik
B2 came in with a Kd in assay [3] of 12.3 ± 0.5 µM. For the same molecule, in assay [4], the “k_ass,fast (fast phase of association)” value was found to be 4.4 ± 0.2 µM⁻¹ s⁻¹ and the “k_ass,slow (slow phase of association)” value was determined as 17 ± 1 s⁻¹. For the same molecule, in assay [6], the koff worked out at 35.6 ± 2.2 s⁻¹.

B3: FITC-pKID (phosphorylated KID of CREB, residues 116-146, N-terminus labeled with FITC) (peptide, UniProt P15337-1 116-146, looked up)
peptide: {FITC}-DSVTDSQKRREILSRRP[pS]YRKILNDLSSDAP
notes: kinase inducible domain (KID) of CREB, UniProt P15337, residues 116-146 (31 residues), phosphorylated at S133; source: synthetic peptide, bought: Biomatik
With B3, binding in assay [3] was put at a Kd of 0.11 µM. Also, in assay [4], the “k_ass,fast (fast phase of association)” value stood at 7.3 ± 0.3 µM⁻¹ s⁻¹ and the “k_ass,slow (slow phase of association)” value was determined as 24.2 ± 1.4 s⁻¹. Further, the “half-life of the complex” value in assay [5] was around 1000 ms. This molecule gave a koff in assay [6] of 0.81 ± 0.01 s⁻¹.

A word on the Kd: it is the equilibrium constant for the complex coming apart. Broadly, the koff is the rate constant with which the complex falls apart. High values mean fast dissociation, low ones slow dissociation.

The record behind these values is paper PMC5770967, “Phosphorylation of the IDP KID Modulates Affinity for KIX by Increasing the Lifetime of the Complex” (Biophysical Journal, 2017).
